What was measured:
[1] = system: oligodendrocyte precursor cells in brain contusion model mice; assay: PDGFRα and Ki67 double-positive cells in brain tissue of brain contusion model mice (Example 9); format: in vivo, C57BL/6j mice; settings: continuous intraventricular administration 50 ng/kg body weight per day for 1 week, vs vehicle, FIG. 9
Protocol: Anesthetized C57BL/6j mice (female, 7-week-old) were fixed onto a brain stereotaxic apparatus (Narishige). A midline incision was made in the scalp, the fascia was removed, and the skull was exposed. A craniotomy was performed through a 4-mm diameter circle centered at 2 mm lateral to the bregma. A 3-mm diameter chip was connected to the Pneumatic Impact Device (AmScien Instruments) to create a brain contusion. The parameters for imparting impact were as follows: speed: […], depth: 1 mm, and duration: 120 msec.
Osmotic pumps (ALZET) were filled with an FGF21-containing solution prepared by diluting recombinant FGF21 (R&D) in saline solution. A cannula was attached to the tip of each osmotic pump, and the cannula tip was further connected to a Brain infusion kit (ALZET) to continuously administer the FGF21-containing solution into the ventricles. The FGF21-containing solution was administered for 1 week at a dose of 50 ng/kg body weight of FGF21 per day. […] The sections were immunostained using an anti-PDGFRα antibody and an anti-Ki67 antibody, and the number of PDGFRα and Ki67 double-positive cells in the sections was counted. As a control, a saline solution containing 0.5% BSA (Vehicle) was used, and the number of PDGFRα and Ki67 double-positive cells was counted under the same conditions as those described above. […]

[2] = system: human oligodendrocyte precursor cells; assay: BrdU uptake by human oligodendrocyte precursor cells (Example 8); format: cell-based; parameters: dose or concentration left out as unconfirmed; settings: recombinant human FGF21, human cells, vs saline control; significant difference; FIG. 8
Protocol: Recombinant human FGF21 (R&D) was diluted in saline solution immediately before use to prepare an FGF21-containing solution. Human oligodendrocyte precursor cells (ScienCell) were also prepared.
Initially, the oligodendrocyte precursor cells were seeded in a poly-L-lysinde-coated plastic tissue culture dish (Greiner Bio-One), and cultured in the following medium for 1 day (37° C., 5% CO2). The medium used was DMEM containing 4 mM L-gludamine (Sigma), 1 mM sodium pyruvate (Sigma), 0.1% bovine serum albumin (Sigma), 50 μg/ml apo-Transferrin (Sigma), 5 μg/ml insulin (Sigma), 30 nM sodium selenite (Sigma), 10 nM biotin (Sigma), 10 nM hydrocortisone (Sigma), 10 ng/ml Platelet-Derived Growth Factor-AA (Peprotech), 10 ng/ml basic fibroblast growth factor (Peprotech) 1 (v/v) %, and penicillin/streptomycin (Life Technologies). […] BrdU was subsequently added and cultured at 37° C. for 24 hours, and then the cells were collected; the BrdU uptake was then detected using the cell proliferation ELISA, BrdU colorimetric kit (Roche). As a control, an equivalent amount of saline solution was used instead of the FGF21-containing solution, and the BrdU uptake was measured under the same conditions as those described above. […]

[3] = system: oligodendrocyte precursor cells; assay: BrdU uptake by oligodendrocyte precursor cells with recombinant FGFs (Example 3); format: cell-based, C57BL/6j mice; settings: FGF at 10, 30 or 100 ng/ml, vs saline control; FIG. 3
Protocol: Recombinant FGF15 (Abcam), FGF21 (R&D), or FGF23 (R&D) was diluted in saline solution immediately before use to prepare an each FGF-containing solution. Oligodendrocyte precursor cells were harvested from C57BL/6j mice (postnatal day 1-old) brains, as in Example 1.
Initially, the oligodendrocyte precursor cells were seeded in a poly-L-lysinde (Sigma)-coated plastic tissue culture dish, and cultured in the following medium for 1 day (37° C., 5% CO2). The medium used was DMEM containing 4 mM L-gludamine (Sigma), 1 mM sodium pyruvate (Sigma), 0.1% bovine serum albumin (Sigma), 50 μg/ml apo-Transferrin (Sigma), 5 μg/ml insulin (Sigma), 30 nM sodium selenite (Sigma), 10 nM biotin (Sigma), 10 nM hydrocortisone (Sigma), 10 ng/ml Platelet-Derived Growth Factor-AA (Peprotech), and 10 ng/ml basic fibroblast growth factor (Peprotech). Thereafter, each type of FGF-containing solution was added to the culture medium of oligodendrocyte precursor cells such that the concentration of each type of FGF was 10 ng/ml, 30 ng/ml, or 100 ng/ml, and the cells were cultured at 37° C. for 24 hours. BrdU was subsequently added and cultured at 37° C. for 24 hours, and then the cells were collected; the BrdU uptake was then detected using the cell proliferation ELISA, BrdU colorimetric kit (Roche). As a control, an equivalent amount of saline solution was used instead of the FGF21-containing solution, and the BrdU uptake was measured under the same conditions as those described above. This experiment studied three cases for each group.

[4] = system: oligodendrocyte precursor cells in demyelination model mice; assay: PDGFRα and Ki67 double-positive cells in spinal cord of demyelination model mice, osmotic pump administration (Example 4); format: in vivo, C57BL/6j mice; settings: continuous local administration by osmotic pump for 7 days, 350 ng in total, vs saline, p<0.05, FIG. 4
Protocol: Demyelination model mice were produced by topically administering 2 μl per mouse of lysophosphatidylcholine diluted to 1% (w/v) in saline solution into the spinal cord of C57BL/6j mice (female, 7-week-old).
Osmotic pumps (ALZET) were filled with an FGF21-containing solution prepared by diluting recombinant FGF21 (R&D) to 4.17 μg/ml in saline solution, a cannula was attached to the tip of each pump, and the tip was attached to the site of lysophosphatidylcholine administration in each demyelination model mouse to continuously administer FGF21. After 7 days, the demyelination model mice were anesthetized and transcardially perfused with saline solution, and spinal cord tissue was harvested. Ultimately, 350 ng of FGF21 was administered. The spinal cord tissue was fixed with a 4% paraformaldehyde solution, which was then replaced with a 30% sucrose solution, and subsequently, frozen thin sections were prepared. The sections were immunostained using an anti-PDGFRα antibody and an anti-Ki67 antibody, and the number of PDGFRα and Ki67 double-positive cells in the sections was counted. PDGFRα is a marker for oligodendrocyte precursor cells, and Ki67 is a cell proliferation marker. As a control, saline solution was used, and the number of PDGFRα and Ki67 double-positive cells was counted under the same conditions as those described above. […]

B1: FGF21: Recombinant fibroblast growth factor 21 (R&D); the claimed active ingredient promoting oligodendrocyte precursor cell proliferation (protein, listed as Homo sapiens)
chain: MDSDETGFEHSGLWVSVLAGLLLGACQAHPIPDSSPLLQFGGQVRQRYLYTDDAQQTEAHLEIREDGTVGGAADQSPESLLQLKALKPGVIQILGVKTSRFLCQRPDGALYGSLHFDPEACSFRELLLEDGYNVYQSEAHGLPLHLPGNKSPHRDPAPRGPARFLPLPGLPPALPEPPGILAPQPPDVGSSDPLSMVGPSQGRSPSYAS
- number of PDGFRα and Ki67 double-positive cells [1]: increased
- BrdU uptake by the oligodendrocyte precursor cells [2]: markedly increased
- BrdU uptake by the oligodendrocyte precursor cells [3]: markedly increased
- number of PDGFRα and Ki67 double-positive cells [4]: increased
